The record followed here is the Immune Epitope Database (IEDB).

As usually defined, the IC50 is the concentration that inhibits the measured activity by half. Low values mean greater potency, high ones weaker potency. For orientation: Kd means the equilibrium constant for the complex coming apart. A high value points to a looser complex.

Assay [1] addresses HLA-B*08:01. Put plainly: IEDB peptide-MHC binding, purified MHC/competitive/fluorescence; ≥ and ≤ were set here for values at or beyond the usual limits of such assays. The conditions noted are these: source organism: Zaire ebolavirus.
Assay [2] has as its target HLA-A*02:01. Described as above. The conditions noted are these: source organism: Zaire ebolavirus.
The target of another assay is HLA-A*01:01. Description: IEDB peptide-MHC binding, purified MHC/direct/fluorescence; filed as Kd, often an IC50 or EC50 that approximates it; ≥ and ≤ were set here for values at or beyond the usual limits of such assays.
The target in another assay is HLA-A*26:01. The description is as above.
The target in a further assay is HLA-B*15:01. The description is as above.
A further assay has as its target HLA-B*27:05. The assay is described as above.
Another assay deals with HLA-A*31:01. Described as above.
The next assay concerns the target HLA-B*40:01. The description is as above.
Assay [3] has as its target HLA-B*08:01. Described as above.
In another assay the target is HLA-A*24:02. The assay is described as above.
The next assay addresses HLA-B*58:01. Described as above.
The target in assay [4] is HLA-A*02:01. The assay is described as above.
In a further assay the target is HLA-A*03:01. The description is as above.
For a further assay, the target named is HLA-B*07:02. The description is as above.
In assay [5] the target is HLA-A*11:01. Described as above.
A further assay has as its target HLA-A*69:01. The assay is described as above.
A further assay deals with HLA-B*46:01. The description is as above.
A further assay has as its target HLA-B*15:09. Described as above. The conditions noted are these: source organism: Influenza A virus(A/swine/Shandong/fNY/2003(H9N2)).
Another assay deals with HLA-B*35:01. The assay is described as above. The conditions noted are these: source organism: Giardia lamblia ATCC 50803.
A further assay has as its target HLA-B*44:02. The assay is described as above.
Another assay has as its target HLA-A*24:03. The description is as above.
For assay [6], the target named is HLA-A*11:01. Put plainly: IEDB peptide-MHC binding, purified MHC/competitive/fluorescence; ≥ and ≤ were set here for values at or beyond the usual limits of such assays. To be noted: source organism: Zaire ebolavirus.
The target in another assay is HLA-B*08:02. Description: IEDB peptide-MHC binding, purified MHC/direct/fluorescence; filed as Kd, often an IC50 or EC50 that approximates it; ≥ and ≤ were set here for values at or beyond the usual limits of such assays.
A further assay has as its target HLA-A*23:01. Described as above.
For a further assay, the target named is HLA-B*15:17. Description: IEDB peptide-MHC binding, purified MHC/competitive/fluorescence; filed as Kd, often an IC50 or EC50 that approximates it; ≥ and ≤ were set here for values at or beyond the usual limits of such assays. The conditions noted are these: source organism: Influenza A virus (A/ruddy turnstone/NJ/60/1985(N9)).
In assay [7] the target is HLA-B*18:01. The description is as above. The conditions noted are these: source organism: Influenza A virus (A/ruddy turnstone/NJ/60/1985(N9)).
In another assay the target is HLA-A*26:02. Described as above. The conditions noted are these: source organism: Influenza A virus (A/ruddy turnstone/NJ/60/1985(N9)).
For another assay, the target named is HLA-A*68:02. Description: IEDB peptide-MHC binding, purified MHC/direct/fluorescence; filed as Kd, often an IC50 or EC50 that approximates it; ≥ and ≤ were set here for values at or beyond the usual limits of such assays. The conditions noted are these: source organism: Influenza A virus.
The next assay deals with HLA-B*57:01. The assay is described as above. The conditions noted are these: source organism: Influenza A virus.
Assay [8] deals with HLA-B*18:01. The description is as above. To be noted: source organism: Influenza A virus (A/Viet Nam/HN/2004(H5N1)).
Setting [9] is: source organism: Influenza A virus (A/equine/New York/1/1999(H3N8)).
Setting [10] is: source organism: Influenza A virus (A/Puerto Rico/8/34/Mount Sinai(H1N1)).
Where [11] appears, read: source organism: Giardia lamblia ATCC 50803.
Where [12] appears, read: source organism: H9N2 subtype Influenza A virus (A/swine/Korea/S81/2004(H9N2)).
The mark [13] stands for this setting: source organism: Influenza A virus.
[14] abbreviates: source organism: Influenza A virus (A/tiger/Thailand/CU-LV/2004(H5N1)).
Where [15] appears, read: source organism: Influenza A virus (A/Viet Nam/HN/2004(H5N1)).
The mark [16] stands for this setting: source organism: Influenza A virus(A/swine/Henan/3/2004(H9N2)).

Bounds are passed on as bounds.

YHMMKDEPV: the IC50 in the assay with HLA-B*08:01 [1] is at least 178 µM; with HLA-A*02:01 [2] it was 42.3 µM.

With RELVRKTRF, the Kd is at least 20 µM with HLA-A*01:01 (setting [9]); at least 20 µM with HLA-A*26:01 (source organism: Influenza A virus(A/swine/Shandong/fNY/2003(H9N2))); 1.58 µM with HLA-B*15:01 (setting [10]); at least 20 µM in the assay with HLA-B*27:05 (setting [9]); at least 20 µM in the assay with HLA-A*31:01 (setting [9]); 0.35 µM in the assay with HLA-B*40:01 (setting [10]). For the same sequence, the Kd with HLA-B*08:01 [3] (setting [9]), with HLA-A*24:02 (setting [9]), with HLA-B*58:01 (setting [9]), in the assay with HLA-A*02:01 [4] (setting [9]), with HLA-A*03:01 (setting [9]) and in the assay with HLA-B*07:02 (setting [9]) was at least 20 µM each time. For the same sequence, the Kd with HLA-A*11:01 [5] (setting [9]), with HLA-A*69:01 (setting [9]), with HLA-B*46:01 (setting [9]) and in the assay with HLA-B*15:09 was at least 20 µM each time.

On to PTKCGENLY, for which the Kd is 7.76 µM with HLA-A*01:01 (setting [11]); at least 20 µM with HLA-A*26:01 (setting [11]); 2.36 µM in the assay with HLA-B*15:01 (setting [11]); at least 20 µM with HLA-B*27:05 (setting [11]); 5.2 µM with HLA-B*35:01; at least 20 µM in the assay with HLA-A*31:01 (setting [11]). Besides, the Kd in the assay with HLA-B*40:01 (setting [11]), with HLA-B*44:02 (setting [11]), with HLA-B*08:01 [3] (setting [11]), with HLA-B*58:01 (setting [11]), in the assay with HLA-A*02:01 [4] (setting [11]) and with HLA-A*03:01 (setting [11]) was at least 20 µM throughout. Besides, the Kd with HLA-B*07:02 (setting [11]) is at least 20 µM; with HLA-A*11:01 [5] (setting [11]), at least 20 µM; with HLA-A*69:01 (setting [11]), 12.9 µM; with HLA-A*24:03 (setting [11]) it was at least 20 µM.

With EVKKRDGVK, the IC50 is at least 211 µM with HLA-B*08:01 [1] and 66.4 µM with HLA-A*11:01 [6].

Take KAVRGDLNF: the Kd was at least 20 µM in the assay with HLA-A*01:01 (setting [12]); 0.929 µM with HLA-B*15:01 (setting [10]); at least 20 µM with HLA-B*27:05 (setting [12]); at least 20 µM in the assay with HLA-A*31:01 (setting [12]); at least 20 µM with HLA-B*40:01 (setting [12]); at least 20 µM with HLA-B*44:02 (setting [12]). Besides, the Kd is at least 20 µM in the assay with HLA-B*08:01 [3] (setting [12]); at least 20 µM with HLA-A*24:02 (setting [12]); 0.093 µM with HLA-B*58:01 (setting [12]); at least 20 µM with HLA-A*02:01 [4] (setting [12]); at least 20 µM in the assay with HLA-A*03:01 (setting [12]); at least 20 µM with HLA-B*08:02 (source organism: Influenza A virus(A/swine/Shandong/fZC/2003(H9N2))). For the same sequence, the equilibrium dissociation constant (Kd) with HLA-B*07:02 (setting [12]), in the assay with HLA-A*11:01 [5] (setting [12]) and with HLA-A*69:01 (setting [12]) was at least 20 µM throughout.

Consider QYEKDPDEL, for which the Kd in the assay with HLA-A*23:01 (source organism: Amur virus) was 11.5 µM; with HLA-A*24:02 (source organism: Amur virus) it was 4.65 µM; with HLA-A*24:03 (source organism: Amur virus), 13 µM.

As to DWSGYSGSF, the Kd with HLA-B*15:17 was 1.24 µM; in the assay with HLA-B*18:01 [7] it was at least 20 µM; with HLA-A*26:02, 3.45 µM; with HLA-A*01:01 (setting [13]), at least 20 µM; with HLA-A*26:01 (setting [14]) it was at least 20 µM; in the assay with HLA-A*68:02, at least 20 µM. The Kd is at least 10 µM in the assay with HLA-B*15:01 (setting [10]); at least 20 µM in the assay with HLA-B*27:05 (setting [13]); at least 20 µM in the assay with HLA-A*31:01 (setting [13]); 0.175 µM with HLA-A*23:01 (setting [13]); at least 20 µM with HLA-B*40:01 (setting [13]); at least 20 µM with HLA-B*44:02 (setting [13]). For the same sequence, the Kd with HLA-B*08:01 [3] (setting [13]) was at least 20 µM; in the assay with HLA-A*24:02 (setting [13]), 0.0875 µM; with HLA-B*58:01 (setting [13]) it was at least 20 µM; with HLA-A*02:01 [4] (setting [13]) it was at least 20 µM; in the assay with HLA-A*03:01 (setting [13]), at least 20 µM; in the assay with HLA-B*07:02 (setting [13]), at least 20 µM. Also, the Kd with HLA-A*11:01 [5] (setting [13]) is at least 20 µM; with HLA-A*69:01 (setting [13]), at least 20 µM; with HLA-A*24:03 (setting [14]) it was 0.072 µM; in the assay with HLA-B*46:01 (setting [13]), at least 20 µM; with HLA-B*57:01, at least 20 µM.

For the sequence HILQKTERG, the IC50 is at least 365 µM with HLA-B*08:01 [1] and at least 99.6 µM in the assay with HLA-A*02:01 [2].

As to RRVRDNMTK, the dissociation constant (Kd) with HLA-A*01:01 (setting [15]) was at least 20 µM; with HLA-A*26:01 (setting [16]), at least 20 µM; with HLA-B*15:01 (setting [15]), at least 20 µM; with HLA-B*27:05 (setting [10]), 0.45 µM; with HLA-B*40:01 (setting [15]) it was at least 20 µM; with HLA-B*44:02 (setting [15]) it was at least 20 µM. The Kd with HLA-B*08:01 [3] (setting [15]), with HLA-A*24:02 (setting [15]), with HLA-B*58:01 (setting [15]), with HLA-A*02:01 [4] (setting [15]), in the assay with HLA-A*03:01 (setting [15]) and with HLA-B*08:02 (setting [16]) was at least 20 µM throughout. For the same sequence, the Kd with HLA-B*18:01 [8], with HLA-B*07:02 (setting [15]), in the assay with HLA-A*11:01 [5] (setting [15]), with HLA-A*69:01 (setting [15]) and with HLA-B*46:01 (setting [15]) was at least 20 µM throughout.
